Reference: article PMC5228031, “CDK4/6-dependent activation of DUB3 regulates cancer metastasis through SNAIL1” (Nature Communications, 2017)

Target: T1, His-DUB3 (UniProt Q6R6M4 1-530)
T1 construct: cloned into PET28A; source: purified recombinant
T1 sequence (looked up): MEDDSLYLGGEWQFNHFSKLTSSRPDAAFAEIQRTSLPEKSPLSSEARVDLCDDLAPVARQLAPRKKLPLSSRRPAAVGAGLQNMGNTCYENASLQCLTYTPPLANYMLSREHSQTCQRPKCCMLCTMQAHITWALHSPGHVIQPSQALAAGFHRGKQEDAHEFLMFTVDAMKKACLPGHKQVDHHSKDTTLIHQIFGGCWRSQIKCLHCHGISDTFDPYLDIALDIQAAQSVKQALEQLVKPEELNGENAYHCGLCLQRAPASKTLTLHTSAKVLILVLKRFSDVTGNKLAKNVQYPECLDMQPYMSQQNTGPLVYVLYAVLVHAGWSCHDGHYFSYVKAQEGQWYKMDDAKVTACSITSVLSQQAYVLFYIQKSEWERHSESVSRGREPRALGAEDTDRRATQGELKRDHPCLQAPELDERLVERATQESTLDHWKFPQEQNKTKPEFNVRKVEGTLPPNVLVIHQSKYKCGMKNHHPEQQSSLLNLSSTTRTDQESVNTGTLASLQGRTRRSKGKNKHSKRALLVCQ
Assay: pull-down; purified recombinant GST or GST fusion protein and His-tagged protein incubated in vitro
Conditions: both partners purified

B1: GST-CDK4 (enzyme, UniProt P11802 1-303, looked up)
chain: MATSRYEPVAEIGVGAYGTVYKARDPHSGHFVALKSVRVPNGGGGGGGLPISTVREVALLRRLEAFEHPNVVRLMDVCATSRTDREIKVTLVFEHVDQDLRTYLDKAPPPGLPAETIKDLMRQFLRGLDFLHANCIVHRDLKPENILVTSGGTVKLADFGLARIYSYQMALTPVVVTLWYRAPEVLLQSTYATPVDMWSVGCIFAEMFRRKPLFCGNSEADQLGKIFDLIGLPPEDDWPRDVSLPRGAFPPRGPRPVQSVVPEMEESGAQLLLEMLTFNPHKRISAFRALQHSYLHKDEGNPE
notes: also called CDK4/6; source: purified recombinant
**Q.** Does B1 bind?
**A.** Result: binds
